# Results from the supplement of paper PMC9112550, “Optimization of the antimicrobial peptide Bac7 by deep mutational scanning” (BMC Biology, 2022).
# System: Escherichia coli TOP10
# Assay: shrunken log2 fold change of peptide-encoding DNA abundance (4.5 h post-induction vs induction); higher = less antimicrobial activity (less host growth inhibition)
# Details: time post-induction: 4.5 h; library: site-saturation at positions 5, 18, 19, 20
# 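Further: peptides expressed intracellularly from a pBAD plasmid library in pooled LB shake-flask culture, induced with 0.3% L-arabinose, DNA abundance read by NGS, three biological replicates, DESeq2 with apeglm shrinkage.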
row,Sequence,shrunken log2 fold change
1,RRIRFRPPRLPRPRPRPMAYPRP,-0.0672
2,RRIRTRPPRLPRPRPRPWWLPRP,0.125
3,RRIRMRPPRLPRPRPRPGNQPRP,-0.0232
4,RRIRGRPPRLPRPRPRPPAYPRP,0.532
5,RRIRTRPPRLPRPRPRPEFQPRP,-0.161
6,RRIRSRPPRLPRPRPRPWREPRP,0.0924
7,RRIRHRPPRLPRPRPRPHMGPRP,-0.238
8,RRIRHRPPRLPRPRPRPQPNPRP,-0.168
9,RRIRDRPPRLPRPRPRPYTGPRP,-1.03
10,RRIRERPPRLPRPRPRPQHWPRP,-0.046
11,RRIRMRPPRLPRPRPRPGMIPRP,-0.00139
12,RRIRWRPPRLPRPRPRPTDVPRP,-0.283
13,RRIRFRPPRLPRPRPRPPQMPRP,0.333
14,RRIRMRPPRLPRPRPRPNWSPRP,-0.18
15,RRIRQRPPRLPRPRPRPEHYPRP,-0.153
16,RRIRLRPPRLPRPRPRPFERPRP,0.198
17,RRIRYRPPRLPRPRPRPEHNPRP,-0.0212
18,RRIRWRPPRLPRPRPRPVAMPRP,0.427
19,RRIRSRPPRLPRPRPRPKGFPRP,0.158
20,RRIRMRPPRLPRPRPRPVYTPRP,0.194
21,RRIRTRPPRLPRPRPRPRIRPRP,0.0303
22,RRIRIRPPRLPRPRPRPTIEPRP,-0.44
23,RRIRCRPPRLPRPRPRPKFIPRP,-0.653
24,RRIRSRPPRLPRPRPRPSHMPRP,-0.993
25,RRIRIRPPRLPRPRPRPKLYPRP,-0.33

row,Sequence,shrunken log2 fold change
1,RRIRCRPPRLPRPRPRPVWWPRP,0.261
2,RRIRHRPPRLPRPRPRPAWIPRP,-0.0987
3,RRIRHRPPRLPRPRPRPYCIPRP,-0.21
4,RRIRSRPPRLPRPRPRPRKKPRP,0.362
5,RRIRDRPPRLPRPRPRPRLTPRP,0.41
6,RRIRTRPPRLPRPRPRPGSTPRP,0.857
7,RRIRHRPPRLPRPRPRPKGEPRP,-0.0141
8,RRIRMRPPRLPRPRPRPLLGPRP,0.495
9,RRIRGRPPRLPRPRPRPKDMPRP,0.213
10,RRIRKRPPRLPRPRPRPGLFPRP,0.556
11,RRIRHRPPRLPRPRPRPQVQPRP,0.0789
12,RRIRERPPRLPRPRPRPSQYPRP,-0.113
13,RRIRMRPPRLPRPRPRPLCSPRP,-0.0295
14,RRIRWRPPRLPRPRPRPWPCPRP,0.0272
15,RRIRWRPPRLPRPRPRPVTSPRP,0.112
16,RRIRLRPPRLPRPRPRPWPEPRP,0.243
17,RRIRQRPPRLPRPRPRPLTPPRP,0.31
18,RRIRARPPRLPRPRPRPRTFPRP,0.287
19,RRIRIRPPRLPRPRPRPWRWPRP,0.182
20,RRIRPRPPRLPRPRPRPDFQPRP,0.262
21,RRIRVRPPRLPRPRPRPMEWPRP,-0.125
22,RRIRDRPPRLPRPRPRPCAYPRP,0.297
23,RRIRFRPPRLPRPRPRPYDGPRP,-0.18
24,RRIRYRPPRLPRPRPRPTREPRP,-0.145
25,RRIRERPPRLPRPRPRPVVFPRP,-0.0884

row,Sequence,shrunken log2 fold change
1,RRIRERPPRLPRPRPRPATVPRP,-0.2
2,RRIRERPPRLPRPRPRPIAKPRP,0.0393
3,RRIRLRPPRLPRPRPRPLKWPRP,-0.369
4,RRIRIRPPRLPRPRPRPTLLPRP,-0.374
5,RRIRDRPPRLPRPRPRPGIIPRP,-0.171
6,RRIRIRPPRLPRPRPRPCTCPRP,-0.652
7,RRIRQRPPRLPRPRPRPPMRPRP,0.862
8,RRIRHRPPRLPRPRPRPIDWPRP,0.0599
9,RRIRDRPPRLPRPRPRPFARPRP,0.579
10,RRIRIRPPRLPRPRPRPWSYPRP,-0.427
11,RRIRARPPRLPRPRPRPTWQPRP,0.4
12,RRIRTRPPRLPRPRPRPPILPRP,0.112
13,RRIRLRPPRLPRPRPRPCQDPRP,0.0219
14,RRIRDRPPRLPRPRPRPASDPRP,0.0114
15,RRIRHRPPRLPRPRPRPWRMPRP,0.0309
16,RRIRVRPPRLPRPRPRPQSPPRP,-0.221
17,RRIRMRPPRLPRPRPRPNSKPRP,-0.129
18,RRIRWRPPRLPRPRPRPNEHPRP,-0.113
19,RRIRRRPPRLPRPRPRPFQIPRP,-0.325
20,RRIRDRPPRLPRPRPRPFYCPRP,-0.0803
21,RRIRYRPPRLPRPRPRPDGQPRP,0.0173
22,RRIRERPPRLPRPRPRPVGSPRP,-0.174
23,RRIRERPPRLPRPRPRPDKLPRP,-1.81
24,RRIRSRPPRLPRPRPRPHIFPRP,-0.197
25,RRIRQRPPRLPRPRPRPEFKPRP,-0.0763

row,Sequence,shrunken log2 fold change
1,RRIRNRPPRLPRPRPRPRYFPRP,-0.342
2,RRIRKRPPRLPRPRPRPETDPRP,0.0366
3,RRIRQRPPRLPRPRPRPPRIPRP,0.0686
4,RRIRGRPPRLPRPRPRPRLAPRP,1.35
5,RRIRGRPPRLPRPRPRPVYNPRP,0.0349
6,RRIRLRPPRLPRPRPRPKMAPRP,0.259
7,RRIRTRPPRLPRPRPRPPFMPRP,-0.194
8,RRIRLRPPRLPRPRPRPNNMPRP,-0.703
9,RRIRWRPPRLPRPRPRPDGKPRP,0.00353
10,RRIRHRPPRLPRPRPRPQIKPRP,-0.889
11,RRIRPRPPRLPRPRPRPHFWPRP,0.482
12,RRIRTRPPRLPRPRPRPIRKPRP,0.0309
13,RRIRPRPPRLPRPRPRPIIEPRP,-0.138
14,RRIRARPPRLPRPRPRPKMVPRP,0.116
15,RRIRNRPPRLPRPRPRPATAPRP,0.0174
16,RRIRQRPPRLPRPRPRPISTPRP,-0.503
17,RRIRGRPPRLPRPRPRPPMWPRP,1.1
18,RRIRRRPPRLPRPRPRPNNQPRP,-0.0752
19,RRIRIRPPRLPRPRPRPPHCPRP,-0.391
20,RRIRERPPRLPRPRPRPDYEPRP,-0.202
21,RRIRIRPPRLPRPRPRPWCPPRP,0.0944
22,RRIRIRPPRLPRPRPRPMAEPRP,-0.0152
23,RRIRRRPPRLPRPRPRPIENPRP,-0.0103
24,RRIRTRPPRLPRPRPRPWNEPRP,0.00902
25,RRIRCRPPRLPRPRPRPMGRPRP,0.162

row,Sequence,shrunken log2 fold change
1,RRIRTRPPRLPRPRPRPHECPRP,-0.287
2,RRIRDRPPRLPRPRPRPNYWPRP,-0.218
3,RRIRARPPRLPRPRPRPILYPRP,-0.348
4,RRIRERPPRLPRPRPRPNMAPRP,-0.163
5,RRIRCRPPRLPRPRPRPETLPRP,-0.193
6,RRIRGRPPRLPRPRPRPENNPRP,0.502
7,RRIRFRPPRLPRPRPRPWLAPRP,2.73
8,RRIRQRPPRLPRPRPRPSLEPRP,0.0433
9,RRIRIRPPRLPRPRPRPRLMPRP,-0.0272
10,RRIRDRPPRLPRPRPRPAKVPRP,0.114
11,RRIRCRPPRLPRPRPRPHPNPRP,-0.186
12,RRIRTRPPRLPRPRPRPTNAPRP,0.209
13,RRIRYRPPRLPRPRPRPQIIPRP,-0.248
14,RRIRLRPPRLPRPRPRPLDRPRP,0.25
15,RRIRRRPPRLPRPRPRPGAQPRP,0.352
16,RRIRTRPPRLPRPRPRPMQHPRP,-0.112
17,RRIRCRPPRLPRPRPRPLGCPRP,0.347
18,RRIRDRPPRLPRPRPRPEVTPRP,-0.000921
19,RRIRWRPPRLPRPRPRPTVWPRP,0.533
20,RRIRTRPPRLPRPRPRPMWIPRP,-0.222
21,RRIRFRPPRLPRPRPRPQHNPRP,-0.781
22,RRIRERPPRLPRPRPRPREAPRP,0.419
23,RRIRARPPRLPRPRPRPDWVPRP,0.517
24,RRIRARPPRLPRPRPRPILEPRP,-0.0126
25,RRIRKRPPRLPRPRPRPFPIPRP,-0.0405

row,Sequence,shrunken log2 fold change
1,RRIRARPPRLPRPRPRPNVGPRP,0.251
2,RRIRIRPPRLPRPRPRPICIPRP,-0.127
3,RRIRMRPPRLPRPRPRPEGAPRP,3.32
4,RRIRHRPPRLPRPRPRPYTIPRP,-0.0416
5,RRIRHRPPRLPRPRPRPDDCPRP,-0.00674
6,RRIRHRPPRLPRPRPRPFPYPRP,-0.0859
7,RRIRTRPPRLPRPRPRPEIMPRP,-0.468
8,RRIRWRPPRLPRPRPRPIDIPRP,-0.535
9,RRIRIRPPRLPRPRPRPGNNPRP,-0.00577
10,RRIRGRPPRLPRPRPRPMSRPRP,0.00829
11,RRIRPRPPRLPRPRPRPHPIPRP,0.0162
12,RRIRTRPPRLPRPRPRPCWYPRP,4
13,RRIRWRPPRLPRPRPRPRVDPRP,0.39
14,RRIRMRPPRLPRPRPRPLKEPRP,0.701
15,RRIRHRPPRLPRPRPRPGGIPRP,-0.092
16,RRIRARPPRLPRPRPRPDTNPRP,-0.0188
17,RRIRDRPPRLPRPRPRPYRPPRP,-0.00509
18,RRIRVRPPRLPRPRPRPANCPRP,0.031
19,RRIRYRPPRLPRPRPRPGFMPRP,-0.279
20,RRIRIRPPRLPRPRPRPNWRPRP,0.0227
21,RRIRPRPPRLPRPRPRPTECPRP,0.0179
22,RRIRNRPPRLPRPRPRPNICPRP,-0.0714
23,RRIRSRPPRLPRPRPRPFGGPRP,-0.0941
24,RRIRVRPPRLPRPRPRPTFRPRP,0.218
25,RRIRNRPPRLPRPRPRPKWHPRP,0.129
